One molecule from patent US7807153 (Genentech, dated 2010) can be followed below.

The target in this test is T1, DR4 expressed in transfected CHO cells (UniProt O00220 24-468, limits assumed).
T1 construct: whole, on cells; also called DR4-transfected CHO cells; DR4-transfected cells
Briefly: immunohistochemistry on sections of transfected CHO cells. The method, then:
CHO cells were transfected with vector alone or vector containing the gene for Apo-2 or DR4. The transfected cells were removed from culture plates, pelleted, and washed twice with PBS. The pellets were then resuspended in O.C.T. (Fisher), flash frozen in isopentain and LN_2, and later sectioned using standard protocols. Staining of the sectioned cells was performed using a Vectastain Elite ABC kit. […] The secondary antibody employed was either a biotinylated anti-c-myc 9E10 antibody or anti-Penta His antibody (Qiagen) followed by biotinylated anti-mouse IgG.

B1: single chain antibody (scFv) fragment 16E2 (scFv)
scFv: EVQLVQSGGGVERPGGSLRLSCAASGFTFDDYGMSWVRQAPGKGLEWVSGINWNGGSTGYADSVKGRVTISRDNAKNSLYLQMNSLRAEDTAVYYCAKILGAGRGWYFDLWGKGTTVTVSSGGGGSGGGGSGGGGSSELTQDPAVSVALGQTVRITCQGDSLRSYYASWYQQKPGQAPVLVIYGKNNRPSGIPDRFSGSSSGNTASLTITGAQAEDEADYYCNSRDSSGNHVVFGGGTKLTVLGAAAHHHHHHGAAEQKLISEEDLNGAA
notes: Purified by IMAC from E. coli; also called 16E2 antibody; anti-Apo-2 antibody 16E2
For the molecule B1, the binding result is “no binding”.
